Source: publication PMC11659893

Assays:
[1] = biological target: Triticum aestivum chlorophyllase (Tachlorophyllase), wild type (Triticum aestivum); test: SEC-MALS + other: dynamic light scattering
[2] = biological target: Tachlorophyllase H76S/E79S/C270S triple variant (Triticum aestivum); test: SEC-MALS + other: dynamic light scattering

| stoichiometry N [1] | stoichiometry N [2] | Substance |
| --- | --- | --- |
| 2 |  | Triticum aestivum chlorophyllase (Tachlorophyllase), wild type (enzyme) |
|  | 2 | Tachlorophyllase H76S/E79S/C270S triple variant (enzyme) |
